Measured values published in patent publication CN118307667A (INST PATHOGEN BIOLOGY CAMS, dated 2024).

B1: RSFP2D9抗体 (antibody, V domains shown)
VH: EVQLVESGGGLVQPGGSLRLSCAASGFTFSTYEMNWVRQAPGKGLEWISYISVSGATIYYADSVKGRFTISRDNAKSSVYLQMTSLRPEDTAIYYCARDNSLTDYGSGLYWGQGTTVTVSS
VL: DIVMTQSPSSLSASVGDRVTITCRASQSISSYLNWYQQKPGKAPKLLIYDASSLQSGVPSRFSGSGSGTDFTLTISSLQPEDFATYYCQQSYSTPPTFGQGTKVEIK
B2: RSFP2B6抗体 (antibody, V domains shown)
VH: QVQLVQSGGALAQPGRSLRLSCTTSGFTFGDYAVNWVRQAPGKGLEWVGIVRTEPYGGTTEYSASVKGRFIISRDDSKGIAYLQMNSLKTEDTGVYYCSQPILNVDVWGQGTTVTVSS
VL: NFMLTQPHSVSESPGKTVTISCTRSSGSFGSDYVQWYQQRPGSAPNTVIYENNQRPSGVPDRFSGSIDSSSNSASLTISGLKTEDEADYYCQSYDDNTPWVFGGGTELTVL
B3: RSFP2G7抗体 (antibody, V domains shown)
VH: QVQLVQSGTEVRKPGSSVKVSCTASGGTFSIYDIFWVRQAPGQGLEWMGRIIPILDQIDYAQKFEGRVTITADKGRKTVYMELSSLRSDDTAVYYCARPPDTYDNIERWGPGTLVTVSS
VL: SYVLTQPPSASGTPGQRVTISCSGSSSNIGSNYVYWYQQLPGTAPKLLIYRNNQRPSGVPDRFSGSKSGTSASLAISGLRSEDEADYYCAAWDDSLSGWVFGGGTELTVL

The binders below were run against RSV(strain A2)病毒的F蛋白 (RSV (strain A2), UniProt P03420 26-574) (assay: cell-based or functional assay).
Chain of RSV(strain A2)病毒的F蛋白 (P03420 26-574): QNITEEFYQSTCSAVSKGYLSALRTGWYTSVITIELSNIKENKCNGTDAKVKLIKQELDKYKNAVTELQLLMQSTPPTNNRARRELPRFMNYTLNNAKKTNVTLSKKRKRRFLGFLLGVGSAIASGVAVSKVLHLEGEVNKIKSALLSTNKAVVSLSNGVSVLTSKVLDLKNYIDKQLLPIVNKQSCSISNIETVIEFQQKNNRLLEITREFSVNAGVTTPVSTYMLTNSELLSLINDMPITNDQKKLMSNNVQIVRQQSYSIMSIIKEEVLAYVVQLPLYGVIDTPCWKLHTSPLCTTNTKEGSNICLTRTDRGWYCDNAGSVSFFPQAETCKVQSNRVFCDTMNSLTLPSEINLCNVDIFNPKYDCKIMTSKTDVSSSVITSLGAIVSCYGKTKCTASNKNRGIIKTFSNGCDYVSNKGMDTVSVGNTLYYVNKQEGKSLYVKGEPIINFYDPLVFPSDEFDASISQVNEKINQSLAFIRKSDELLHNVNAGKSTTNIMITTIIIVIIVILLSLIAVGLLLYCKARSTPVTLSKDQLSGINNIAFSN

Row | Binder | 中和IC50 (RSV strain A2活病毒, focus count, 293T细胞)
1 | B1 | 0.054 µg/mL
2 | B2 | 1 µg/mL
3 | B3 | 0.734 µg/mL

The binders below were run against RSV-A2 F假病毒上的F蛋白 (参考序列Uniprot:P03420) (RSV A2, UniProt P03420 26-574) (assay: cell-based or functional assay).
Chain of RSV-A2 F假病毒上的F蛋白 (参考序列Uniprot:P03420) (P03420 26-574, one chain of several): as the sequence (P03420 26-574) above

Row | Binder | 中和IC50 (RSV-A2假病毒, luciferase, 293T细胞)
4 | B1 | 0.532 µg/mL
5 | B2 | 3.89 µg/mL
6 | B3 | 1.7 µg/mL
